Experimental data reported in patent US20060288448.
Residue numbers refer to the chain shown, from its start.

Experiments:
[1] = tested on: T1, Cry8Bb1-K05 88 kDa polypeptide
T1 sequence: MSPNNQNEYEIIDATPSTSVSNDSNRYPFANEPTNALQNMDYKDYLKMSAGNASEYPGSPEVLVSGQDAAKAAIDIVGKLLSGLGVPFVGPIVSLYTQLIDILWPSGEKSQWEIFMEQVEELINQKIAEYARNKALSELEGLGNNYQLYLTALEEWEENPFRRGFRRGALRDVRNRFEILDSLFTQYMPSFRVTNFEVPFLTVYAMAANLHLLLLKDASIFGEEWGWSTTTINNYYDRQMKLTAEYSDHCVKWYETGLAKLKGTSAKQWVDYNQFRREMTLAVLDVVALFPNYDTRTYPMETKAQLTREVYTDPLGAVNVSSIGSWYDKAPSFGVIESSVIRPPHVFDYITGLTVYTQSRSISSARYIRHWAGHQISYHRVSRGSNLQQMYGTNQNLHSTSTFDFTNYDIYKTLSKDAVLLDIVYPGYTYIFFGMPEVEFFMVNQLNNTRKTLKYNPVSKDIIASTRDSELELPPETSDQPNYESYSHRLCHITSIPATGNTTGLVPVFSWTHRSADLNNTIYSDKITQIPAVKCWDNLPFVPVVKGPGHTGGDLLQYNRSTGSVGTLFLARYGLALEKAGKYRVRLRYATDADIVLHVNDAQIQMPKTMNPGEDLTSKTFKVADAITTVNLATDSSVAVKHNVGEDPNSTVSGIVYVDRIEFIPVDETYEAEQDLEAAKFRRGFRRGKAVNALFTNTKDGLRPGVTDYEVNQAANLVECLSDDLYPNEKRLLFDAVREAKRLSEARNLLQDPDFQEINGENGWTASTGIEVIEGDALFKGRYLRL

[2] = tested on: T2, Cry8Bb1-ISC-1 88 kDa polypeptide
T2 sequence: T1 sequence with F161L, R162S, R163Q, G164S, F165L, R166S, R167Q, G168S

trypsin was tested. Which “proteolytic digestion for 72 h (SDS-PAGE, N-terminal sequencing)” value [1] did it give?
The value was “Cry8Bb1-K05 was cleaved within the loop between helix 3 and 4 of domain I of the toxin molecule to generate a 55 kDa polypeptide”.

And the “proteolytic digestion for 72 h (SDS-PAGE)” value [2]?
The value was “the 88 kDa Cry8Bb1-ISC-1 polypeptide was not cleaved within the activation loop to generate the 55 kDa polypeptide”.

How did the “proteolytic digestion for 72 h (SDS-PAGE, N-terminal sequencing)” value [1] turn out when chymotrypsin was run?
Its value is “Cry8Bb1-K05 was cleaved within the loop between helix 3 and 4 of domain I of the toxin molecule to generate a 55 kDa polypeptide”.

And the “proteolytic digestion for 72 h (SDS-PAGE)” value [2]?
Its value is “the 88 kDa Cry8Bb1-ISC-1 polypeptide was not cleaved within the activation loop to generate the 55 kDa polypeptide”.
